Experimental data reported in US20120225828A1.
Bridge positions count the residues as written; N and C are the ends. Square brackets hold non-standard residues; d marks the D form. dPhe(3-Cl) = N[C@H](Cc1cccc(Cl)c1)C(=O)O; dPhe(4-Cl) = N[C@H](Cc1ccc(Cl)cc1)C(=O)O; dPhe(4-Me) = Cc1ccc(C[C@@H](N)C(=O)O)cc1; dPhe(2-Cl) = N[C@H](Cc1ccccc1Cl)C(=O)O; dPhe(4-F) = N[C@H](Cc1ccc(F)cc1)C(=O)O; dPhe(2-F) = N[C@H](Cc1ccccc1F)C(=O)O; Nle = CCCC[C@H](N)C(=O)O; Orn = NCCC[C@H](N)C(=O)O; Dab = NCC[C@H](N)C(=O)O; Dap = NC[C@H](N)C(=O)O

How the values were obtained:
[1] = biological target: recombinant human melanocortin-4 receptor hMCR-4 (human) (UniProt P32245); experiment: competition with [I125]-NDP-α-MSH; HEK-293 hMCR-4 membrane homogenates
[2] = biological target: recombinant human melanocortin-1 receptor hMCR-1a (human) (UniProt Q01726); experiment: competition with [I125]-NDP-α-MSH; HEK-293 hMCR-1a membrane homogenates
Sequence of recombinant human melanocortin-1 receptor hMCR-1a (human) (Q01726 whole entry): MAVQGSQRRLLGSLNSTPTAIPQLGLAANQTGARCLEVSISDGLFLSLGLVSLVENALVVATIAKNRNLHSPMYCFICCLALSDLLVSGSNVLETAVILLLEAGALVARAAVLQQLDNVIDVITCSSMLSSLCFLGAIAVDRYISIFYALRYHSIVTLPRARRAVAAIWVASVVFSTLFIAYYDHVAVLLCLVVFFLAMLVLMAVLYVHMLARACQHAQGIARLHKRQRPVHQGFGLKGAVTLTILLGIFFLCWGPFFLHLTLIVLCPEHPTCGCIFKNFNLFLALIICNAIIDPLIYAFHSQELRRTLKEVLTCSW

Sequence of recombinant human melanocortin-4 receptor hMCR-4 (human) (P32245 whole entry): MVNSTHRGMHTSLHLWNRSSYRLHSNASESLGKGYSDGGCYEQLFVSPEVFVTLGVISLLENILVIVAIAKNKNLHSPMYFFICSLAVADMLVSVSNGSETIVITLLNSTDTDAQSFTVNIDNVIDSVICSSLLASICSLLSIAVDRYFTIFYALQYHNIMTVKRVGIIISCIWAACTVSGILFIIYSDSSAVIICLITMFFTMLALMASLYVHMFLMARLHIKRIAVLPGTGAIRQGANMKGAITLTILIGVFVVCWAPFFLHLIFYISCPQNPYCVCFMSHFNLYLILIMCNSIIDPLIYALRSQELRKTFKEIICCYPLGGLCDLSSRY

Substance | Ki [1] [nM] | Ki [2] [nM]
Ac-D-Phe-cyclo(Glu-His-D-Phe-Arg-Dab)-Trp-NH2 (peptide) | 535 | –
Ac-Nle-cyclo(Dab-His-D-Phe-Arg-Dab)-Trp-NH2 with bridge C(═O)-(CH2)2-C(═O) (peptide) | 380 | 0.015
Ac-Nle-cyclo(Dab-His-D-Phe-Arg-Dap)-Trp-NH2 with bridge C(═O)-(CH2)2-C(═O) (peptide) | 325 | 0.025
Ac-Nle-cyclo(Dap-His-D-Phe-Arg-Dab)-Trp-NH2 with bridge C(═O)-(CH2)2-C(═O) (peptide) | 860 | 0.065
Ac-Nle-cyclo(Dap-His-D-Phe-Arg-Dap)-Trp-NH2 with bridge C(═O)-(CH2)2-C(═O) (peptide) | 680 | 0.03
Ac-Nle-cyclo(Glu-Ala-D-Phe-Arg-Dab)-Trp-NH2 (SEQ ID NO: 52) (peptide) | 455 | –
Ac-Nle-cyclo(Glu-Ala-D-Phe-Arg-Dab)-Trp-NH2 (peptide) | 455 | –
Ac-Nle-cyclo(Glu-His-D-Phe-Arg-Dab)-Trp-NH2 (peptide) | 110 | –
Ac-Nle-cyclo(Glu-His-D-Phe-Arg-Dab)-Trp-OH (peptide) | 10000 | 2
Ac-Nle-cyclo(Glu-His-D-Phe-Arg-Dap)-Trp-NH2 (peptide) | 358 | –
Ac-Nle-cyclo(Glu-His-D-Phe-Arg-Dap)-Trp-OH (peptide) | 4700 | 1
Ac-Nle-cyclo(Glu-His-D-Phe-Arg-Orn)-Trp-NH2 (peptide) | 295 | –
Ac-Nle-cyclo(Glu-Orn-D-Phe(3,4-F)-Arg-Dab)-NH2 (peptide) | 10000 | 40
Ac-Nle-cyclo(Glu-Orn-D-Phe(4-OMe)-Arg-Dab)-NH2 (peptide) | 10000 | 2
Ac-Nle-cyclo(Glu-Pro-D-Phe-Arg-Dab)-NH2 (peptide) | 10000 | 2250
Ac-[Nle]DH[dF]R[Dap]W-NH2 (lactam 2-6) | 1320 | 2
Ac-[Nle]EH[dF]A[Dab]-NH2 (lactam 2-6) | 10000 | 645

Substance | Ki [1] [nM] | Ki [2] [nM]
Ac-[Nle]EH[dF]A[Dab]-NH2 (lactam 2-6; SEQ ID NO: 48) | 10000 | 645
Ac-[Nle]EH[dF]A[Dab]W-NH2 (lactam 2-6) | 10000 | –
Ac-[Nle]EH[dF]G[Dab]W-NH2 (lactam 2-6) | 10000 | 9
Ac-[Nle]EH[dF]R[Dab]-NH2 (lactam 2-6) | 10000 | 7
Ac-[Nle]EH[dF]R[Dab]-NH2 (lactam 2-6; SEQ ID NO: 47) | 10000 | 7
Ac-[Nle]EH[dF]R[Dab]A-NH2 (lactam 2-6) | 7480 | 2
Ac-[Nle]EH[dF]R[Dab]K-NH2 (lactam 2-6) | 7380 | 2
Ac-[Nle]EH[dF][Dab]-NH2 (lactam 2-5) | 10000 | 10000
Ac-[Nle]EP[dF]R[Dab]W-NH2 (lactam 2-6) | 185 | 3
Ac-[Nle]E[Orn][dF]R[Dab]-NH2 (lactam 2-6) | 3620 | 4
Ac-[Nle]E[Orn][dPhe(2-Cl)]R[Dab]-NH2 (lactam 2-6) | 10000 | 30
Ac-[Nle]E[Orn][dPhe(2-F)]R[Dab]-NH2 (lactam 2-6) | 10000 | 18
Ac-[Nle]E[Orn][dPhe(3-Cl)]R[Dab]-NH2 (lactam 2-6) | 10000 | 35
Ac-[Nle]E[Orn][dPhe(4-Cl)]R[Dab]-NH2 (lactam 2-6) | 1240 | 2
Ac-[Nle]E[Orn][dPhe(4-F)]R[Dab]-NH2 (lactam 2-6) | 10000 | 20
Ac-[Nle]E[Orn][dPhe(4-Me)]R[Dab]-NH2 (lactam 2-6) | 10000 | 3

Stronger by Ki [1], values ahead:

Ki [1] [nM] | Ki [2] [nM] | Substance
20 | – | Ac-Nle-cyclo(Glu-Arg-D-Phe-Arg-Dab)-Trp-NH2 (SEQ ID NO: 53) (peptide)
20 | – | Ac-Nle-cyclo(Glu-Arg-D-Phe-Arg-Dab)-Trp-NH2 (peptide)
98 | 0.45 | Ac-Nle-cyclo(Glu-Cit-D-Phe-Arg-Dab)-Trp-NH2 (SEQ ID NO: 54) (peptide)
98 | 0.45 | Ac-Nle-cyclo(Glu-Cit-D-Phe-Arg-Dab)-Trp-NH2 (peptide)
98 | 0.05 | Ac-Nle-cyclo(Glu-Dab-D-Phe-Arg-Dab)-Trp-NH2 (SEQ ID NO: 57) (peptide)
98 | 0.05 | Ac-Nle-cyclo(Glu-Dab-D-Phe-Arg-Dab)-Trp-NH2 (peptide)
2 | 0.1 | Ac-Nle-cyclo(Glu-His-D-Phe-Arg-Dab)-D-Nal 1-NH2 (peptide)
33 | 0.55 | Ac-Nle-cyclo(Glu-His-D-Phe-Arg-Dab)-D-Trp-NH2 (peptide)
0.75 | 0.005 | Ac-Nle-cyclo(Glu-His-D-Phe-Arg-Dab)-Nal 1-NH2 (peptide)
0.095 | 0.02 | Ac-Nle-cyclo(Glu-His-D-Phe-Arg-Dab)-Nal 2-NH2 (SEQ ID NO: 14) (peptide)
3 | 0.01 | Ac-Nle-cyclo(Glu-His-D-Phe-Arg-Dab)-Nal 2-NH2 (peptide)
95 | – | Ac-Nle-cyclo(Glu-Lys-D-Phe-Arg-Dab)-Trp-NH2 (SEQ ID NO: 56) (peptide)
95 | – | Ac-Nle-cyclo(Glu-Lys-D-Phe-Arg-Dab)-Trp-NH2 (peptide)
45 | 0.015 | Ac-Nle-cyclo(Glu-Orn-D-Phe-Arg-Dab)-Trp-NH2 (SEQ ID NO: 58) (peptide)
45 | 0.015 | Ac-Nle-cyclo(Glu-Orn-D-Phe-Arg-Dab)-Trp-NH2 (peptide)
